Assay results from paper PMC12412624, “Engineered Cas12j‐8 is a Versatile Platform for Multiplexed Genome Modulation in Mammalian Cells”.
Changes are numbered by the printed parent chain.

Tests used:
Conditions in all cases: HEK293T cells; panel 1c (compare within a panel only); scale: mean GFP / mean GFP of wild type, printed, no background subtraction
[1] = system: T1, dCas12j-8 D495R D495R;D369A;E567A;D658A (bacteriophage (metagenome))
T1 sequence: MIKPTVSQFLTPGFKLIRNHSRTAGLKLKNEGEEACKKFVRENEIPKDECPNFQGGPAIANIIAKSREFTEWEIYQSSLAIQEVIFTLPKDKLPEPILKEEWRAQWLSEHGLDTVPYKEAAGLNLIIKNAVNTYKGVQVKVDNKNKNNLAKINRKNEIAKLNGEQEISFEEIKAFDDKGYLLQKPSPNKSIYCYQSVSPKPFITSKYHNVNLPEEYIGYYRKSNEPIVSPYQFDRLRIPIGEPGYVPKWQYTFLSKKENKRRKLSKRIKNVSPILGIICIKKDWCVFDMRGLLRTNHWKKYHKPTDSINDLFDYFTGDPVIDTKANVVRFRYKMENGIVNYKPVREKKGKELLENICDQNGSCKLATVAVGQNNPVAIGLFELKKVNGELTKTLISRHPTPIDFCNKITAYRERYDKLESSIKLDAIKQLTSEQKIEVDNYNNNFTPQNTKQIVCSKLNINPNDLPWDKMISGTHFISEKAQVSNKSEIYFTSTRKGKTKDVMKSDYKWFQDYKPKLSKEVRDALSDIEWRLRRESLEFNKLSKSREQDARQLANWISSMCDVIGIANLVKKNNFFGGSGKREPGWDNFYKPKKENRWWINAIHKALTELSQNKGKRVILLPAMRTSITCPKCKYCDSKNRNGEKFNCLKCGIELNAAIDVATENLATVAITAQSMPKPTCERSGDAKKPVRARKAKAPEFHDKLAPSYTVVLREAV

[2] = system: T2, dCas12j-8 D523R D523R;D369A;E567A;D658A (bacteriophage (metagenome))
T2 sequence: T1 sequence with R495D, D523R

[3] = system: T3, dCas12j-8 E242R E242R;D369A;E567A;D658A (bacteriophage (metagenome))
T3 sequence: T1 sequence with E242R, R495D

For “CUUUCAAGACUAAUAGAUUGCUCCUUACGAGGAGACACUCCCUAUCAGUGAUAGAG / TTNACTCCCTATCAGTGATAGAG / CTCTATCACTGATAGGGAGTNAA [TetO]”, the binding signal [1] was 1.18, the binding signal [2] was 1.32 and the binding signal [3] was 0.683.
